Assay results published in US20150184142.

Experiments:
Compound 7 = test system: T1, Compound 7
T1 sequence: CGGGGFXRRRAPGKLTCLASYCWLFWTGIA

## thrombin
Compound 1
  cleavage by 1.4 nM thrombin at 37 C, HPLC: 30% of Compound 1 was quickly cleaved and released
  cleavage rate with 14 nM thrombin, HPLC, against Compound 2: at least 10-fold increase in cleavage rate compared to that of Compound 2
Compound 4
  cleavage by 1.4 nM thrombin at 37 C, HPLC: Compound 1 was a better substrate for thrombin than Compounds 4 and 5
Compound 5
  cleavage by 1.4 nM thrombin at 37 C, HPLC: Compound 1 was a better substrate for thrombin than Compounds 4 and 5
Compound 7
  cleavage by 1.4 nM thrombin in PBS at 37 C, HPLC: Approximately 90% of Compound 7 was cleaved after 30 minutes
